The test system of one test is T1, RadA (RadAFL).
T1 construct: full length, 453 residues, hexamer; recombinant in E. coli; ATPase work with native untagged protein (pET21d); crystal with SeMet RadAFL (pET-radA or StrepII-tagged IBA13-radA), C4 domain (1-35) unresolved
The experiment in a line: coupled spectrophotometric ATPase assay (pyruvate kinase / lactate dehydrogenase, NADH at […] nm), Michaelis-Menten fit. As to conditions: ATP 0-2 mM, 600 nM RadA, 2 uM nt phiX174 ssDNA, 4 mM Mg(OAc)2, pH 7.5, 37 C. Type of test: biochemical, Streptococcus pneumoniae.

Test [1] addresses P domain of pneumococcal RadA (RadAP) (S. pneumoniae). The experiment in a line: SEC-MALS; samples at 2 mg/ml injected on Superdex200 Increase coupled to MALS and refractive index detection, 0.4 ml/min, 298 K; hexamer independent of nucleotide and Mg2+. On the technique in general: Size exclusion chromatography separates by hydrodynamic size, large species first.
The target of test [2] is RadA K101A, purified without tag (S. pneumoniae). The experiment in a line: SEC; gel filtration of purified untagged RadA proteins on Superdex 200 increase 10/300 in 25 mM Tris pH 8, 200 mM NaCl, 20% glycerol; calibrated with 43, 158 and 440 kDa standards.
The target in test [3] is RadA K251A, purified without tag (S. pneumoniae). The description is as above.
Test [4] addresses RadA R253A, purified without tag (S. pneumoniae). The test is described as above.
The target in test [5] is full-length pneumococcal RadA (RadAFL), preparation for structural analysis (S. pneumoniae). Kind of test: SEC-MALS; samples at 2 mg/ml injected on Superdex200 Increase coupled to MALS and refractive index detection, 0.4 ml/min, 298 K; hexamer independent of nucleotide and Mg2+.

Turning to `Nc1ncnc2c1ncn2[C@@H]1O[C@H](COP(=O)(O)OP(=O)(O)OP(=O)(O)O)[C@@H](O)[C@H]1O` [ATP], the Km with RadA (RadAFL) was 150 µM.
As to “P domain of pneumococcal RadA (RadAP) (domain or fragment)”, the stoichiometry N in test [1] is 6.
On to “RadA K101A, purified without tag (enzyme)”, for which, in test [2], the stoichiometry N turned out to be 6.
As to “RadA K251A, purified without tag (enzyme)”, in test [3], the stoichiometry N is 6.
As to “RadA R253A, purified without tag (enzyme)”, the stoichiometry N in test [4] is 6.
In the case of “full-length pneumococcal RadA (RadAFL), preparation for structural analysis (enzyme)”, the stoichiometry N in test [5] stood at 6.

The term Km denotes the concentration of substrate that gives half-maximal velocity. What is called stoichiometry N is a count of units in the complex or per binding partner.

(Values after paper PMC5512693, “Bacterial RadA is a DnaB-type helicase interacting with RecA to promote bidirectional D-loop extension” (Nature Communications, 2017).)
